Assay results taken from US12692310B2, “ASIC1 channel antagonist antibody” (ShanghaiTech University, priority 2019, dated 2026).
Like-named read-outs stand apart in the source and are kept apart here. No end group written: not given here.

B1: ASC02 (scFv, V domains shown)
VH: QVQLVQSGAEVKKPGASMKVSCTTSGYTVTGYYIHWLRQAPGQGFEWMGWINPNLGVTNYAQKFQGRVSMTRDPSIKTAYLELSGLRSDDTAMYYCARASTGGIFYDYWGQGTLVTVSS
VL: NFMLTQPHSMSESPGKTVTISCTRSSGNIASNYVQWYQQRPGSSPTTVIYDDNQRPSGVPDRFSGSIDSISNSASLTISGLKTEDEADYYCQSYDSSSVIFGGGTKLTVLG
notes: also called ASC02 scFv; ASC02 (scFv format)
B2: venom peptide PcTx1 fused with Fc (PcTx1-Fc) (Fc fusion)
chain: EDCIPKWKGCVNRHGDCCEGLECWKRRRSFEVCVPKTPKT
modifications: ends and bridges not checked; also: fused with Fc, isotype, linker and order not given here
B3: ASC03 (scFv, V domains shown)
VH: QVQLVESGAEVKKPGSSVKVSCKASGGNFRKYSISWVRQAPGQGLEWMGWISAYNGNTNYAQKLQGRVTMTTDTSTSTAYMELRSLRSDDTAVYYCARDFDPYYDAFDIWGQGTTVTVSS
VL: QSALTQPASVSGSPGQSITISCTGTSSDVGAYNYVSWYQQHPGKAPKLMIYDVSNRLSGVSNRFSGSKSGNRASLTISGLQAEDEADYYCSSYRSGNSLAFGGGTKLTVLG
notes: also called ASC03 scFv; ASC03 (scFv format)
B4: ASC04 (scFv, V domains shown)
VH: QVQLVQSGAEVKKPGSSVKVSCKASGGTFSTYAINWVRQAPGQGLEWMGWMNPNSGNTGYAQKFQGRVTMTRNTSISTAYMELSSLRSEDTAVYYCARYSYGMDVWGQGTTVTVSS
VL: QAVLTQPSSLSASPGASVSLTCTLRSGINVGAYRIYWYQQKPGSPPQFLLRYKSDSDKQQGSGVPSRFSGSRDASANAGILLISGLRSEDEADYYCAIWHSSAWVFGGGTKLTVLG
notes: also called ASC04 scFv; ASC04 (scFv format)

Tests used:
[1] = system: MCAO-induced ischemic stroke model mice; assay: Middle cerebral artery occlusion (MCAO)-induced ischemic stroke model; type: in vivo, mouse; settings: 4 μL i.c.v. 3 h after ischemia; 100 nM PcTx1 or 3.0 μg/μL ASC06-IgG1; 24 h after injection
Method: The Middle Cerebral Artery Occlusion (MCAO) Model. Animal care and the experimental protocols were approved by the Animal Ethics Committee of Shanghai Jiao Tong University School of Medicine, Shanghai, China. A transient ischemic stroke in the left brain hemisphere was established in male mice (C57 BL/6, 20-25 g) using middle cerebral artery occlusion (MCAO) for 1 h before reperfusion. Three hours after ischemia, a total of 4 μL of vehicle solution (PBS) in the absence or presence of neuroprotective agents) 100 nM PcTx1 or 3.0 μg/μL endotoxin-free ASC06-IgG1 ([…])) was administered by an intracerebroventricular (i.c.v.) injection on the contralateral side of the brain hemisphere. An irrelevant endotoxin-free antibody (3.0 μg/μL, […]) was used as isotype control. […] Mice were sacrificed 24 h after the i.c.v. injection. […] The infarct area was calculated by subtracting the normal area stained with TTC in the ischemic hemisphere from that of the nonischemic hemisphere. The infarct volume was calculated by summing infarction areas of all sections and multiplying by slice thickness.
To determine if the protective effect of antibody ASC06-IgG1 in vitro could be extended to pathologies in vivo, the middle cerebral artery occlusion (MCAO) model was used to study the antibody's neuroprotective effect. […] The infarct volume of the cortex and striatum were calculated 24 hours after the injection. […]

hASIC1a = target: T1, hASIC1a (Homo sapiens, UniProt P78348); assay: Whole-cell patch clamp, acid-induced hASIC1a currents in stable CHO-K1 cells; type: cell-based
T1 construct: expressed in transfected cells
T1 sequence (P78348 1-528): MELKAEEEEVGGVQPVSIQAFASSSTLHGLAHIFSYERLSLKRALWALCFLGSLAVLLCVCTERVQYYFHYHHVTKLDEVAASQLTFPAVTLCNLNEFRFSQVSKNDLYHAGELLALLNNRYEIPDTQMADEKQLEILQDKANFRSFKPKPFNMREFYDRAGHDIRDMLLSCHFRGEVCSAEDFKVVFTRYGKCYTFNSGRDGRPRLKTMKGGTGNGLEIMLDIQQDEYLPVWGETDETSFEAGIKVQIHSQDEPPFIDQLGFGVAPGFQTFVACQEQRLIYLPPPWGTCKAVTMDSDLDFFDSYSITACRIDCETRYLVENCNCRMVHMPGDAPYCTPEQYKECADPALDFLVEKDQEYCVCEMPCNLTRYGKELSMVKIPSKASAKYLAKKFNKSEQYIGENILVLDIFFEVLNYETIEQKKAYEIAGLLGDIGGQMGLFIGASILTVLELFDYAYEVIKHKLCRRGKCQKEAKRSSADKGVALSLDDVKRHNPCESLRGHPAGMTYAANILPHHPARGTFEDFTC
Method: Electrophysiological Experiments. The inward cellular ASIC1a current was recorded from a single cell using standard whole-cell recording techniques by a patch-clamp amplifier (Axon 200B; Axon Instruments). Membrane currents were sampled and analyzed using a Digidata 1320A interface and a personal computer with Clampex and Clampfit software (Version 9.0.1; Axon Instruments). For a typical experiment, the extracellular fluid (ECF) used contained 150 mM NaCl, 5 mM KCl, 10 mM HEPES, 10 mM D-glucose, 2 mM CaCl2, and 1.0 mM MgCl2, with the osmotic pressure in the range of 320-335 mOsm, and pH 7.4 adjusted with 5 M NaOH. Patch electrodes (4-6 MΩ) contained 30 mM NaCl, 120 mM KCl, 0.5 mM CaCl2, 1 mM MgCl2, 10 mM HEPES, 2 mM MgATP, and 5 mM EGTA (pH 7.2 adjusted with 5 M KOH) at 300 mOsm. The ASIC1a activating ECF is identical to the normal ECF, except that MES was used to replace HEPES to maintain the ECF at pH 6.0. A coverslip with discretely distributed individual CHO-ASIC1a stable cells (6H7) on the surface was placed into a recording chamber under a constant perfusion (~2-3 mL/min) generated by an ALA 8 channel perfusion system (ALA Scientific Instruments Inc.) mounted on an inverted microscope. After achieving the break-in (whole-cell) configuration, the cell was voltage clamped at a holding potential of −70 mV. The normal ECF (pH 7.4) was first perfused onto the patched cell, and then, the activating ECF of pH 6.0 was rapidly applied to elicit a maximum inward ASIC1a current as control current. When testing the inhibition effect of the antibody, ECFs of pH 7.4 containing different concentrations of ASC06-IgG1 were perfused from low to high concentration into the recording chamber for 10-15 min. To measure the inhibition of the current, the activating ECFs of pH 6.0 containing the corresponding concentrations of the testing antibodies were applied to the same patched 6H7 cell to generate the inward currents that can be normalized to the control current of the same cell. […] Data acquired from four to five cells were used for statistical calculation of inhibition effects.
The function of ASC06-IgG1 was characterized using electrophysiology approach. The effect of ASC06-IgG1 antibody on the acid-induced, hASIC1a-mediated electrical current in cells was analyzed. PcTx1 was used as a positive control. […] The amplitudes of the hASIC1a-mediated inward currents of the stable cells were recorded and quantitated in the absence and presence of ASC06-IgG1, with venom peptide PcTx1 (100 nM) used as positive control. […] Unlike the sustained inhibition with the antibody after washing, the inhibition with PcTx1 could be readily washed out within 5 minutes (FIG. 5C).

[2] = target: truncated hASIC1a (amino acids 13-464) (human) (UniProt P78348); assay: Octet, scFv format, ΔhASIC1a nanodiscs
hASIC1a-eYFP = target: T2, hASIC1a-eYFP (human, UniProt P78348 1-528); assay: immunocytochemistry, confocal microscopy, CHO-K1 cells expressing hASIC1a-eYFP
T2 construct: whole, on cells; On CHO-K1 cells, stably (6H7) or transiently transfected; also called full-length hASIC1a (1-528 amino acids) fused with eYFP; CHO-K1/hASIC1a cells; not shown: C-terminal eYFP fusion
T2 sequence (looked up): T1 sequence (P78348 1-528)

[3] = target: truncated hASIC1a (amino acids 13-464) (human) (UniProt P78348); assay: Octet, scFv format at 500 nM, ΔhASIC1a nanodiscs
[4] = target: truncated hASIC1a (amino acids 13-464) (human) (UniProt P78348)

| Molecule | infarct volume (compared with the contralateral brain region) [1] | inhibition of the acid-induced current, in words (hASIC1a; 100 nM, positive control) | time for inhibition to be washed out (hASIC1a; washout experiment) [min] | Kd [2] [nM] | binding result (hASIC1a-eYFP) | Response [3] | Kd [4] [nM] |
| --- | --- | --- | --- | --- | --- | --- | --- |
| Psalmotoxin-1 [PcTx1, reference compound] | about 17% | nearly complete inhibition | ≤ 5 |  |  |  |  |
| B1 |  |  |  | 262 | binds | 0.289 |  |
| B2 |  |  |  |  |  |  | 1 |
| B3 |  |  |  | 259 | binds | 0.269 |  |
| B4 |  |  |  | 20.8 | binds | 0.995 |  |
